According to patent US20210079074A1 (Alector, published 2021):
Positions count from the first letter of the chain named. Names may count otherwise. Blank lines part the entries; values can stand above or below the binder they belong to.

Columns and labels:
[1] = biological target: T1, recombinant MS4A4A soluble polypeptide JS1; assay: ELISA, 1 ug/ml antibody
T1 construct: also called JS1.His; loop grafted antigen
Description: Anti-MS4A4A antibodies of the present disclosure were tested for their ability to bind to the different recombinant MS4A4A soluble polypeptides, as described in Example 2, as follows. Nucleic acid encoding the VH and VL domains of humanized anti-MS4A4A antibodies of the present disclosure were cloned into pcDNA3.4 vector which contains either the human IgG1 heavy chain constant domain or human kappa constant domain. The humanized anti-MS4A4A antibodies were expressed in Expi293 cells and were purified by Mab select antibody purification resin (GE Healthcare Life Science, cat#17519902) following the manufacture's protocol. ELISA was performed to measure binding of anti-MS4A4A antibodies of the present disclosure the recombinant MS4A4A soluble polypeptides. 1 μg/ml biotinylated antigens were preincubated on the streptavidin-coated ELISA plates (Thermo Scientific, cat#PI15120) for 1 hour. Plates were washed 3 times, followed by the addition of antibodies (1 μg/ml, 0.33 μg/ml, and 0.11 μg/ml antibodies. Plates were incubated at room temperature with shaking for 1 hr, washed 3 times, then 1/2500 dilution of HRP conjugates goat anti human kappa antibodies added (SigmaAldrich cat#. A7164-1ML).

[2] = biological target: human MS4A4A (human, UniProt Q96JQ5 1-239); assay: FACS, U937-huMS4A4A, 5 ug/ml
Description: Anti-MS4A4A antibodies tested were either mouse IgGs purified from hybridoma supernatant or human IgG1 Fc chimeras produced recombinantly in Expi293 cells. Affinity binding to cells was determined as follows. Briefly, cells were harvested, washed, and labeled with Aqua Live/Dead for viability discrimination. After a wash with PBS, 2×10\hat{ }4 cells were aliquoted per well in 96-well U-bottom plates and incubated with 50 μL of purified anti-MS4A4A antibody at various concentrations (3× dilutions starting at 10 μg/mL) in FACS buffer (PBS+2% FBS+1 mM EDTA). After this primary incubation, the supernatant was removed via centrifugation, washed 2× with 150 μL of ice-cold FACS buffer, and incubated with the appropriate secondary antibody on ice for 15 minutes. Following the secondary antibody incubation, the cells were again washed 2× with ice-cold FACS buffer and resuspended in a final volume of 200 μL of FACS buffer. Flow cytometry analysis was performed on a FACSCanto system (BD Biosciences). Binding data was expressed as Median Fluorescent Intensity (MFI).
These experiments were performed using anti-MS4A4A antibodies at a concentration of 5 μg/ml and were assayed for cell binding by flow cytometry.

[3] = biological target: FcγRIIIa receptor (V158 variant) (UniProt P08637 17-254); assay: cell-based or functional assay
[4] = biological target: T2, FcγRIIa receptor (H131 variant) (UniProt P12318 34-317, limits assumed); assay: cell-based or functional assay
T2 sequence (looked up): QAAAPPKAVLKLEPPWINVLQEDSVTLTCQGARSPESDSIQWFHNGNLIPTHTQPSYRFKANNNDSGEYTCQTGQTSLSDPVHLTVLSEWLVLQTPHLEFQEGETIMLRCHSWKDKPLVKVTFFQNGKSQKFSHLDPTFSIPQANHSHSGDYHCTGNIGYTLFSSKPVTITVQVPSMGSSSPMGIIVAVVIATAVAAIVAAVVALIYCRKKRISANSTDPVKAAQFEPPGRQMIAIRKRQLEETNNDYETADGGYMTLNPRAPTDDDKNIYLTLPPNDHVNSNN

Chain of FcγRIIIa receptor (V158 variant) (P08637 other isoform, or with tags, fused parts or gaps mutant limits assumed): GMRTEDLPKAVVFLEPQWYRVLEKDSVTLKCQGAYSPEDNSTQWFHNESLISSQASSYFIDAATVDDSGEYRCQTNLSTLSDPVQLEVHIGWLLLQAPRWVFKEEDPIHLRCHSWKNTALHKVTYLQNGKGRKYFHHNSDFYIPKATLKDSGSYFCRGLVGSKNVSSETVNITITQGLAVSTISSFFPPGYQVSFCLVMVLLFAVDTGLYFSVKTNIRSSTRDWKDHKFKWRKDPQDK

B1: anti-MS4A4A antibody 4A-305 (antibody, human IgG1, V domains shown)
VH: EVQLVQSGAEVKKPGATVKISCKVSGYTFTNYWMQWVQQAPGKGLEWMGATHPGHGDTRYAEKFQGRVTITADTSTDTAYMELSSLRSEDTAVYYCAREEVYYGFRSYWYFDVWGRGTLVTVSS
VL: DIVMTQSPDSLAVSLGERATINCRASESVDNYGVSFMNWYQQKPGQPPKLLIYGASNQGSGVPDRFSGSGSGTDFTLTISSLQAEDVAVYYCQQSKEVPPTFGGGTKVEIK
notes: human IgG1/kappa
- OD450 [1]: 0.116

B2: anti-MS4A4A antibody 4A-303 (antibody, human IgG1, V domains shown)
VH: EVQLVQSGAEVKKPGESLKISCKGSGYTFTNYWMQWVRQMPGKGLEWMGATHPGHGDTRYSPSFQGQVTISADKSISTAYLQWSSLKASDTAMYYCAREEVYYGFRSYWYFDVWGRGTLVTVSS
VL: B1 VL
notes: human IgG1/kappa
- OD450 [1]: 0.121

B3: anti-MS4A4A antibody 4A-310 (antibody, human IgG1, V domains shown)
VH: B2 VH with I76S
VL: B1 VL
notes: human IgG1/kappa
- OD450 [1]: 0.118

B4: anti-MS4A4A antibody 4A-311 (antibody, human IgG1, V domains shown)
VH: B1 VH with T74K, D77S
VL: B1 VL
notes: human IgG1/kappa
- OD450 [1]: 0.122

B5: anti-MS4A4A antibody 4A-307 (antibody, human IgG1, V domains shown)
VH: QVQLVQSGAEVKKPGASVKVSCKASGYTFTNYWMQWVRQAPGQGLEWMGATHPGHGDTRYAQKFQGRVTMTADKSTSTVYMELSSLRSEDTAVYYCAREEVYYGFRSYWYFDVWGRGTLVTVSS
VL: B1 VL
notes: human IgG1/kappa
- OD450 [1]: 0.126

B6: anti-MS4A4A antibody 4A-333 (antibody, human IgG1, V domains shown)
VH: QVQLVQSGSELKKPGASVKVSCKASGYIFTSYGLSWVRQAPGQGLEWMGWINTYSGVPTYAQGFTGRFVFSLDTSVSTTYLQISSLKAEDTAVYYCARSLVDYWGQGTLVTVSS
VL: DVVMTQSPLSLPVTLGQPASISCKSSQSLLYSDGKTYLSWFQQRPGQSPRRLIYLVSKLDSGVPDRFSGSGSGTDFTLKISRVEAEDVGVYYCWQGIDFHQTFGGGTKVEIK
notes: humanized 4A-21; human IgG1/kappa
- OD450 [1]: 1.79
- MFI [2]: 350

B8: anti-MS4A4A antibody 4A-346 (antibody, human IgG1, V domains shown)
VH: QVQLVQSGAEVKKPGASVKVSCKASGYIFTSYGLSWVRQAPGQGLEWMGWINTYSGVPTYAQKFQGRVTMTRDTSTSTVYMELSSLRSEDTAVYYCARSLVDYWGQGTLVTVSS
VL: B6 VL with V2I, S7T, P12S, L15P, F41Y, Q42L, R44K, S48P, R50Q, R51L
notes: as for B6
- OD450 [1]: 0.148
- MFI [2]: 56.1

B10: anti-MS4A4A antibody 4A-334 (antibody, human IgG1, V domains shown)
VH: B6 VH with T79A
VL: B6 VL with V2I, S7T, L11S, F41L, S48P, R51L, S72A
notes: as for B6
- OD450 [1]: 1.53
- MFI [2]: 296

B22: anti-MS4A4A antibody 4A-313 K322A huIgG1 (antibody)
heavy: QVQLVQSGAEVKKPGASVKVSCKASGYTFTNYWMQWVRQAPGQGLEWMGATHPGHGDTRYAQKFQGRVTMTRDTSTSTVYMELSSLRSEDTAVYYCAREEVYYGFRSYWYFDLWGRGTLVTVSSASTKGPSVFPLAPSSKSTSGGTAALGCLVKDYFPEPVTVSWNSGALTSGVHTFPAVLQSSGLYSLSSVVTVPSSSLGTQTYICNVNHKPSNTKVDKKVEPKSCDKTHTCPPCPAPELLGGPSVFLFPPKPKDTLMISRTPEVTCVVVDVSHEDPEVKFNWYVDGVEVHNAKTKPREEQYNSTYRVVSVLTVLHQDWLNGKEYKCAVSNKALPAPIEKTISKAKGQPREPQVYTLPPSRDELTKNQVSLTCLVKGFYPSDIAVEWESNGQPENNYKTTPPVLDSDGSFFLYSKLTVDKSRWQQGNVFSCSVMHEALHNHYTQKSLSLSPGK
light: EIVLTQSPATLSLSPGERATLSCRASESVDNYGVSRMNWYQQKPGQAPRLLIYGASNQGSGIPARFSGSGSGTDFTLTISSLEPEDFAVYYCQQSKEVPPTFGGGTKVEIKRTVAAPSVFIFPPSDEQLKSGTASVVCLLNNFYPREAKVQWKVDNALQSGNSQESVTEQDSKDSTYSLSSTLTLSKADYEKHKVYACEVTHQGLSSPVTKSFNRGEC
- luminescence, ADCC reporter, 3.048316 ng/mL [3]: 338
- luminescence, ADCC reporter, 9.144947 ng/mL [3]: 338
- luminescence, ADCC reporter, 27.43484 ng/mL [3]: 341
- luminescence, ADCC reporter, 82.30453 ng/mL [3]: 426
- luminescence, ADCC reporter, 246.9136 ng/mL [3]: 508
- luminescence, ADCC reporter, 740.7407 ng/mL [3]: 623
- luminescence, ADCC reporter, 2,222.222 ng/mL [3]: 1020
- luminescence, ADCC reporter, 6,666.667 ng/mL [3]: 1180
- luminescence, ADCC reporter, 20,000 ng/mL [3]: 1220
- luminescence, ADCP reporter, 3.048316 ng/mL [4]: 51
- luminescence, ADCP reporter, 9.144947 ng/mL [4]: 46
- luminescence, ADCP reporter, 27.43484 ng/mL [4]: 44
- luminescence, ADCP reporter, 82.30453 ng/mL [4]: 66
- luminescence, ADCP reporter, 246.9136 ng/mL [4]: 60
- luminescence, ADCP reporter, 740.7407 ng/mL [4]: 54
- luminescence, ADCP reporter, 2,222.222 ng/mL [4]: 67
- luminescence, ADCP reporter, 6,666.667 ng/mL [4]: 242
- luminescence, ADCP reporter, 20,000 ng/mL [4]: 154

B23: anti-MS4A4A antibody 4A-306 (antibody, human IgG1, V domains shown)
VH: B5 VH with A72R, K74T
VL: DIQMTQSPSSLSASVGDRVTITCRASESVDNYGVSFMNWYQQKPGKAPKLLIYGASNQGSGVPSRFSGSGSGTDFTLTISSLQPEDFATYYCQQSKEVPPTFGGGTKVEIK
notes: human IgG1/kappa
- OD450 [1]: 0.12

Other lines, results leading:

- OD450 [1]: 0.162
B7: anti-MS4A4A antibody 4A-341 (antibody, human IgG1, V domains shown)
VH: B8 VH with G44R, A61S, M70I, T76A, V79A
VL: B6 VL with S7T, P12S, L15P, F41Y, Q42L, R44K, S48P, R50Q, R51L
notes: as for B6

- OD450 [1]: 1.76
- MFI [2]: 284
B9: anti-MS4A4A antibody 4A-339 (antibody, human IgG1, V domains shown)
VH: B6 VH
VL: B6 VL with S7T, L11S, F41L, S48P, S72A
notes: as for B6

- OD450 [1]: 0.146
B11: anti-MS4A4A antibody 4A-340 (antibody, human IgG1, V domains shown)
VH: B8 VH with G44R, A61S, M70I, R72L, T76A, V79T
VL: B6 VL with S7T, P12S, L15P, F41Y, Q42L, R44K, S48P, R50Q, R51L
notes: as for B6

- OD450 [1]: 1.66
- MFI [2]: 286
B12: anti-MS4A4A antibody 4A-335 (antibody, human IgG1, V domains shown)
VH: B6 VH with T79A
VL: B6 VL with S7T, L11S, F41L, S48P, R51L, S72A
notes: as for B6

- OD450 [1]: 1.33
- MFI [2]: 218
B13: anti-MS4A4A antibody 4A-337 (antibody, human IgG1, V domains shown)
VH: B6 VH
VL: B6 VL with V2I, S7T, L11S, F41L, S48P, R51L, S72A
notes: as for B6

- OD450 [1]: 1.65
- MFI [2]: 222
B14: anti-MS4A4A antibody 4A-338 (antibody, human IgG1, V domains shown)
VH: B6 VH
VL: B6 VL with S7T, L11S, F41L, S48P, R51L, S72A
notes: as for B6

- OD450 [1]: 1.09
- MFI [2]: 538
B15: anti-MS4A4A antibody 4A-342 (antibody, human IgG1, V domains shown)
VH: B8 VH with V2I
VL: B6 VL with S7T, P12S, L15P, F41Y, Q42L, R44K, S48P, R50Q
notes: as for B6

- OD450 [1]: 1.37
- MFI [2]: 513
B16: anti-MS4A4A antibody 4A-343 (antibody, human IgG1, V domains shown)
VH: B8 VH with V2I, R72L, V79T
VL: B6 VL with S7T, P12S, L15P, F41Y, Q42L, R44K, S48P, R50Q
notes: as for B6

- OD450 [1]: 0.131
- MFI [2]: 47.8
B17: anti-MS4A4A antibody 4A-348 (antibody, human IgG1, V domains shown)
VH: B8 VH with V2I
VL: B6 VL with V2I, S7T, P12S, L15P, F41Y, Q42L, R44K, S48P, R50Q, R51L
notes: as for B6

- OD450 [1]: 1.7
- MFI [2]: 309
B18: anti-MS4A4A antibody 4A-336 (antibody, human IgG1, V domains shown)
VH: B6 VH with T79A
VL: B6 VL with S7T, L11S, F41L, S48P, S72A
notes: as for B6

- OD450 [1]: 0.141
B19: anti-MS4A4A antibody 4A-347 (antibody, human IgG1, V domains shown)
VH: B8 VH with G44R, A61S, M70I, R72L, T76A, V79T
VL: B6 VL with V2I, S7T, P12S, L15P, F41Y, Q42L, R44K, S48P, R50Q, R51L
notes: as for B6

- OD450 [1]: 0.719
- MFI [2]: 427
B20: anti-MS4A4A antibody 4A-344 (antibody, human IgG1, V domains shown)
VH: B8 VH
VL: B6 VL with S7T, P12S, L15P, F41Y, Q42L, R44K, S48P, R50Q
notes: as for B6

- OD450 [1]: 0.132
B21: anti-MS4A4A antibody 4A-345 (antibody, human IgG1, V domains shown)
VH: B8 VH with G44R, A61S, M70I, T76A, V79A
VL: B6 VL with V2I, S7T, P12S, L15P, F41Y, Q42L, R44K, S48P, R50Q, R51L
notes: as for B6
